In patent EP2083016A1 (U.S. Medical Research Institute of Infectious Diseases, dated 2009):

Assays:
[1] = molecular target: T1, HLA-DR1 (DR1 alpha/beta; DRA and DRB1*0101) on the cell surface (human); test: flow cytometry on HLA-DR-bearing cells, FITC rabbit anti-TSST-1
[2] = molecular target: T1, HLA-DR1 (DR1 alpha/beta; DRA and …); test: flow cytometry; toxin on cells bearing HLA-DR1
[3] = molecular target: T1, HLA-DR1 (DR1 alpha/beta; DRA and …); test: flow cytometry on HLA-DR-bearing cells, FITC rabbit anti-SpeA
[4] = molecular target: T1, HLA-DR1 (DR1 alpha/beta; DRA and …); test: flow cytometry on human MHC class II expressing cells

B1: toxic shock syndrome toxin-1 (TSST-1), wild type (ligand)
chain: STNDNIKDLLDWYSSGSDTFTNSEVLDNSLGSMRIKNTDGSISLIIFPSPYYSPAFTKGEKVDLNTKRTKKSQHTSEGTYIHFQISGVTNTEKLPTPIELPLKVKVHGKDSPLKYGPKFDKKQLAISTLDFEIRHQLTQIHGLYRSSDKTGGYWKITMNDGSTYQSDLSKKFEYNTEKPPINIDEIKTIEAEIN
[1]
  binding result: binds

B2: staphylococcal enterotoxin D (SED) (ligand)
chain: NENIDSVKEKELHKKSELSSTALNNMKHSYADKNPIIGENKSTGDQFLENTLLYKKFFTDLINFEDLLINFNSKEMAQHFKSKNVDVYPIRYSINCYGGEIDRTACTYGGVTPHEGNKLKERKKIPINLWINGVQKEVSLDKVQTDKKNVTVQELDAQARRYLQKDLKLYNNDTLGGKIQRGKIEFDSSDGSKVSYDLFDVKGDFPEKQLRIYSDNKTLSTEHLHIDIYLYEK
[2]
  binding result: binds

B3: SpeA mutant L42A (ligand)
chain: QQDPDPSQLHRSSLVKNLQNIYFLYEGDPVTHENVKSVDQLASHDLIYNVSGPNYDKLKTELKNQEMATLFKDKNVDIYGVEYYHLCYLCENAERSACIYGGVTNHEGNHLEIPKKIVVKVSIDGIQSLSFDIETNKKMVTAQELDYKVRKYLTDNKQLYTNGPSKYETGYIKFIPKNKESFWFDFFPEPEFTQSKYLMIYKDNETLDSNTSQIEVYLTTK
[3]
  binding result: binds

B4: staphylococcal enterotoxin A (SEA), wild type (ligand)
chain: SEKSEEINEKDLRKKSELQGTALGNLKQIYYYNEKAKTENKESHDQFLQHTILFKGFFTDHSWYNDLLVDFDSKDIVDKYKGKKVDLYGAYYGYQCAGGTPNKTACMYGGVTLHDNNRLTEEKKVPINLWLDGKQNTVPLETVKTNKKNVTVQELDLQARRYLQEKYNLYNSDVFDGKVQRGLIVFHTSTEPSVNYDLFGAQGQYSNTLLRIYRDNKTINSENMHIDIYLYTS
[4]
  binding result: binds
